In the supplement of paper PMC6379048:
pEC50: −log10 of the molar value.

Tests used:
Test in all cases: EC50 of free RNA motif oligo competing protein binding to immobilised probe
[1] = target: T1, FIP1L1 (UniProt Q6UN15)
T1 sequence: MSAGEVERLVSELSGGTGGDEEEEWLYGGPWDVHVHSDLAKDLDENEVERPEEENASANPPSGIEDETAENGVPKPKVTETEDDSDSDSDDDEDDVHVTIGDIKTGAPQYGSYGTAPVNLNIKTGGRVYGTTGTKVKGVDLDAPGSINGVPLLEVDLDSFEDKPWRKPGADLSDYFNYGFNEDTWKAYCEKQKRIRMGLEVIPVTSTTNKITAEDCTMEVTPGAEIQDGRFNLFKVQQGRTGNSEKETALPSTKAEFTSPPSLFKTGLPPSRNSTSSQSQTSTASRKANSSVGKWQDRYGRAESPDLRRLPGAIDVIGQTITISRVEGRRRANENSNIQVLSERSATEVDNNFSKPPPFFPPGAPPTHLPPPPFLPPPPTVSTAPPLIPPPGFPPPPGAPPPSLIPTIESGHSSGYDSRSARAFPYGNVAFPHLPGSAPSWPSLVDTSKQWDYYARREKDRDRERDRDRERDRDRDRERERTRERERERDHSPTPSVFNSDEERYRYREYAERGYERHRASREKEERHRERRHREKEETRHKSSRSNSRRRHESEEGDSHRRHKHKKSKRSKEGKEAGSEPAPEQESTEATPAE
Procedure, shortened: (§1)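 HEK293-FT lysate (2.5 mg protein/well) was treated with free RNA oligos (0 nM to 30 μM) for 1 h at 4°C, then with the same oligos on NHS-Sepharose beads for 30 min at 4°C. Bound proteins were quantified by label-free LC-MS/MS relative to the control. EC50 came from a four-parameter log-logistic fit, and Kd is EC50 times a protein-dependent depletion factor.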

[2] = target: T2, GPATCH3 (UniProt Q96I76)
T2 sequence: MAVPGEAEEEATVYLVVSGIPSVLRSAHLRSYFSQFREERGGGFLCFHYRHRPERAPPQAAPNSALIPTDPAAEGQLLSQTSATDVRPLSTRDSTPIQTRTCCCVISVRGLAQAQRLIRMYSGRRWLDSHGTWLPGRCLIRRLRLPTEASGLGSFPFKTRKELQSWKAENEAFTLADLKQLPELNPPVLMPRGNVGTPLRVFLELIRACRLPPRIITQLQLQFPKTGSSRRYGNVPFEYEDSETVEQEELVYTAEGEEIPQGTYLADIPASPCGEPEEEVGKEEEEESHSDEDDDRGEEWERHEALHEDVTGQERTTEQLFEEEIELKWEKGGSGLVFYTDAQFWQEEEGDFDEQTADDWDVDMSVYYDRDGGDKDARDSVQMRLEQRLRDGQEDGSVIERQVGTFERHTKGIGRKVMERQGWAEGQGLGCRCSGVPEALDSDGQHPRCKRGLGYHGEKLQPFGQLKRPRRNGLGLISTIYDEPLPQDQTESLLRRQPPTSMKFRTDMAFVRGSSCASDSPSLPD
Procedure, shortened: as §1

[3] = target: T3, LSM4 (UniProt Q9Y4Z0)
T3 sequence: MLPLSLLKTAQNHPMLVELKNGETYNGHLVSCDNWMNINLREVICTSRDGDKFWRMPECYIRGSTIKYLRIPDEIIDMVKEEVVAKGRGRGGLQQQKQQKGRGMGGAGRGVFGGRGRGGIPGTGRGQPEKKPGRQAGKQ
Procedure, shortened: as §1

[4] = target: PABPC4 (UniProt Q13310)
PABPC4, sequence (Q13310 whole entry): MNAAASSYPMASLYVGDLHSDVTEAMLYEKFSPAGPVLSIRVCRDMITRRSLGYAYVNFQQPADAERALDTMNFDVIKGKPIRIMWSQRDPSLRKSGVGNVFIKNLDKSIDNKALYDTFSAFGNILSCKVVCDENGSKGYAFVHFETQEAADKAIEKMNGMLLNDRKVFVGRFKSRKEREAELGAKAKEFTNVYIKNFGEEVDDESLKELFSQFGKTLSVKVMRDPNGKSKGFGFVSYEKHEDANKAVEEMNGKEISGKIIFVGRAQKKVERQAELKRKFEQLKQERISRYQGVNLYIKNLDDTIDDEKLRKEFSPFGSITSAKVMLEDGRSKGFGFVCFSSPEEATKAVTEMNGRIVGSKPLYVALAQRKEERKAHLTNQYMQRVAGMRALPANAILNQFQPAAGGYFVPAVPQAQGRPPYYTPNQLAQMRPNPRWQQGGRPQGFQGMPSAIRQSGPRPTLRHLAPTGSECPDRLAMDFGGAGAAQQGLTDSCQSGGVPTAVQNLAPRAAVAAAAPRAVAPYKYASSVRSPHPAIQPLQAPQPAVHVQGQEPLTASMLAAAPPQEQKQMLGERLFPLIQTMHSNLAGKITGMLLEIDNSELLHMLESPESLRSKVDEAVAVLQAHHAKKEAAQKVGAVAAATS
Procedure, shortened: as §1

[5] = target: T4, PATL1 (UniProt Q86TB9)
T4 sequence: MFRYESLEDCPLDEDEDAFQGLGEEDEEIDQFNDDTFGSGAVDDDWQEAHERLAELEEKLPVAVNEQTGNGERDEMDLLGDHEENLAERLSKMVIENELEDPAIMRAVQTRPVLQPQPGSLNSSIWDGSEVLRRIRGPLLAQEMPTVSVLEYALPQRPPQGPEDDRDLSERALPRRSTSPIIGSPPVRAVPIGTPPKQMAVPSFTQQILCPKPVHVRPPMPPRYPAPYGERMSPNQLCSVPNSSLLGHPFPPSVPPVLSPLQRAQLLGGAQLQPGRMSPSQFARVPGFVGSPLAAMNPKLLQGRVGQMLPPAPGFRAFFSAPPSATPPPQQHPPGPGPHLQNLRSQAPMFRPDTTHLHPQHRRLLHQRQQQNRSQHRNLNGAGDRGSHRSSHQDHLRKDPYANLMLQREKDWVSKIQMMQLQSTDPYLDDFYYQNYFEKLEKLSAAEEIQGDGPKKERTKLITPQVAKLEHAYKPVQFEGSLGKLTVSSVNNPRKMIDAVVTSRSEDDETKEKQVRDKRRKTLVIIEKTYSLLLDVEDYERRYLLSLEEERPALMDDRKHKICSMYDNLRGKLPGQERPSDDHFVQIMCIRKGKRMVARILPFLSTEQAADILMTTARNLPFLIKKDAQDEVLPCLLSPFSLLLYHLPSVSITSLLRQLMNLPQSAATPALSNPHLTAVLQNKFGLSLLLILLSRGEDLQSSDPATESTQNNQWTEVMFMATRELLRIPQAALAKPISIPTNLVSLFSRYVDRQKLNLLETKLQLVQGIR
Procedure, shortened: as §1

[6] = target: RPS20 (UniProt P60866)
Procedure, shortened: as §1

[7] = target: XRN1 (UniProt Q8IZH2)
XRN1, sequence (Q8IZH2 whole entry): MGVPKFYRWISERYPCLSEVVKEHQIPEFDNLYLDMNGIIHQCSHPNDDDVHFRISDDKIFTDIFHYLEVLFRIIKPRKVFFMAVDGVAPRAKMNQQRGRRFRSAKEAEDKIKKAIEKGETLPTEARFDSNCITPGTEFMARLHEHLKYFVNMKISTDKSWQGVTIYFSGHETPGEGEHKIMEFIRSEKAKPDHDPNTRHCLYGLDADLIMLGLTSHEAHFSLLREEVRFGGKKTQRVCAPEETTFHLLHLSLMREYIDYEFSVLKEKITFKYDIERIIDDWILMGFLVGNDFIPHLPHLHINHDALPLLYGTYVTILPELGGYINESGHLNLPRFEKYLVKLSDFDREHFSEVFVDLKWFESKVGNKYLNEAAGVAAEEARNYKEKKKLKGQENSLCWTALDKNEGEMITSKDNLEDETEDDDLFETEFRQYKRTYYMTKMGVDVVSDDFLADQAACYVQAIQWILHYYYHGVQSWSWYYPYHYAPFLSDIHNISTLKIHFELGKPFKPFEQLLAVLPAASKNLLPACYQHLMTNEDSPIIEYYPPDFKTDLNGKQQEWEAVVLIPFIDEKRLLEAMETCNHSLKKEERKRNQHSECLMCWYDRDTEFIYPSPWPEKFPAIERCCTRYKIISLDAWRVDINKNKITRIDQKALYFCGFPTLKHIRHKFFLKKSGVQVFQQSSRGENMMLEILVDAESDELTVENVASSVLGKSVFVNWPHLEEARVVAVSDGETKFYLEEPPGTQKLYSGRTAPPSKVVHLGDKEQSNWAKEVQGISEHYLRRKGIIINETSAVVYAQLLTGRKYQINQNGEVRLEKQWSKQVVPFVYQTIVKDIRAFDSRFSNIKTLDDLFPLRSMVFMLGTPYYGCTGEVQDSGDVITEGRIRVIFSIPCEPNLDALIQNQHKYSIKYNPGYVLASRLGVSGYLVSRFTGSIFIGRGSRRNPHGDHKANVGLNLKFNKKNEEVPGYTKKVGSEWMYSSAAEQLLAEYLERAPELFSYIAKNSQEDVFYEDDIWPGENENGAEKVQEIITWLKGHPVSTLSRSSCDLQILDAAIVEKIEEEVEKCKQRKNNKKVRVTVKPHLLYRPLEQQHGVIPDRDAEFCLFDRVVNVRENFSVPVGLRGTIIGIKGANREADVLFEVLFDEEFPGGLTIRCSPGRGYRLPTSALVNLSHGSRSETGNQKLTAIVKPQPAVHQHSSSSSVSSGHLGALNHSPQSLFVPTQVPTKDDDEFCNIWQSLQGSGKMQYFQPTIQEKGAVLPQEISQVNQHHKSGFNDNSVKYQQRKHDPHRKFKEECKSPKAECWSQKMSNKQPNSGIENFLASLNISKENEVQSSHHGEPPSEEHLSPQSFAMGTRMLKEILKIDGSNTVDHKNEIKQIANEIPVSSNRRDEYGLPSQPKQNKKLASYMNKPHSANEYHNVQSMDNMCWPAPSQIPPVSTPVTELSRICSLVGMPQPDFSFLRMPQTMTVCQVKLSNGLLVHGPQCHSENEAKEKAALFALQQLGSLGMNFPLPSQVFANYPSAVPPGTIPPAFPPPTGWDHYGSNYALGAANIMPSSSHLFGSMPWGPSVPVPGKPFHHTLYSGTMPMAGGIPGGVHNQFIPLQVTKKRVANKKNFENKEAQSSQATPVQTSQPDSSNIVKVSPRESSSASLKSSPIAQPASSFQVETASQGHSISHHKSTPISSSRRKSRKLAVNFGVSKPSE
Procedure, shortened: as §1

Sequence | pEC50 [1] | pEC50 [2] | pEC50 [3] | pEC50 [4] | pEC50 [5] | pEC50 [6] | pEC50 [7]
AAUAAA | 7.19 | 6.05 | 6.33 | 5.37 | 6.33 | 5.42 | 6.36
CUGUCCU |  |  |  |  |  | 6.77 | 
UAUUUAU | 5.86 | 6.49 | 6.22 | 4.87 | 6.39 |  | 6.71
